In the supplement of paper PMC12458215:
± gives the uncertainty stated by the source.

System: HEK293T
Assay: plasma membrane surface immunostaining intensity (anti-HA, deep receptor scanning) (arbitrary fluorescence units); higher = higher plasma membrane expression

Row | Sequence | plasma membrane surface immunostaining intensity (GPCR class: A (Olfactory)) | further results
1 | MAQQWSLQRLAGRHPQDSYEDSTQSSIFTYTNSNSTRGPFEGPNYHIAPRWVYHLTSVWMIFVVTASVFTNGLVLAATMKFKKLRHPLNWILVNLAVADLAETVIASTISIVNQVSGYFVLGHPMCVLEGYTVSLCGITGLWSLAIISWERWMVVCKPFGNVRFDAKLAIVGIAFSWIWAAVWTAPPIFGWSRYWPHGLKTSCGPDVFSGSSYPGVQSYMIVLMVTCCIIPLAIIMLCYLQVWLAIRAVAKQQKESESTQKAEKEVTRMVVVMIFAYCVCWGPYTFFACFAAANPGYAFHPLMAALPAYFAKSATIYNPVIYVFMNRQFRNCILQLFGKKVDDGSELSSASKTEVSSVSSVSPA [OPN1LW] |  | plasma membrane surface immunostaining intensity (GPCR class: A): 261 ± 14
2 | MARENHSLAAEFILIGFTNYPELKTLLFVVFSAIYLVTMVGNLGLVALIYVERRLLTPMYIFLGNLALMDSCCSCAVTPKMLENFFSEDRIISLYECMAQFYFLCLAETTDCFLLATMAYDRYVAICHPLQYHTMMSKTLCIRMTTGAFKAGNLHSMIHVGLLLRLTFCRSNKIHHFFCDILPLYRLSCTDPSINELMIYIFSIPIQIFTIATVLISYLCILLTVFKMKSKEGRGKAFSTCASHFLSVSIFYICLLMYIGPSEEGDKDTPVAIFYAIVIPLLNPFIYSLRNKEVINVLKKIMRNYNILKQTCSIANLFLIY [OR5K4] | 254 ± 110 | 
3 | MQGENFTIWSIFFLEGFSQYPGLEVVLFVFSLVMYLTTLLGNSTLILITILDSRLKTPMYLFLGNLSFMDICYTSASVPTLLVNLLSSQKTIIFSGCAVQMYLSLAMGSTECVLLAVMAYDRYVAICNPLRYSIIMNRCVCARMATVSWVTGCLTALLETSFALQIPLCGNLIDHFTCEILAVLKLACTSSLLMNTIMLVVSILLLPIPMLLVCISYIFILSTILRITSAEGRNKAFSTCGAHLTVVILYYGAALSMYLKPSSSNAQKIDKIISLLYGVLTPMLNPIIYSLRNKEVKDAMKKLLGKITLHQTHEHL [OR2K2] | 144 ± 20 | 
4 | MEGNQTWITDITLLGFQVGPALAILLCGLFSVFYTLTLLGNGVIFGIICLDSKLHTPMYFFLSHLAIIDMSYASNNVPKMLANLMNQKRTISFVPCIMQTFLYLAFAVTECLILVVMSYDRYVAICHPFQYTVIMSWRVCTILVLTSWSCGFALSLVHEILLLRLPFCGPRDVNHLFCEILSVLKLACADTWVNQVVIFATCVFVLVGPLSLILVSYMHILGAILKIQTKEGRIKAFSTCSSHLCVVGLFFGIAMVVYMVPDSNQREEQEKMLSLFHSVFNPMLNPLIYSLRNAQLKGALHRALQRKRSMRTVYGLCL [OR2A2] | 129 ± 17 | 
5 | MLRLFYFSAIIASVILNFVGIIMNLFITVVNCKTWVKSHRISSSDRILFSLGITRFLMLGLFLVNTIYFVSSNTERSVYLSAFFVLCFMFLDSSSVWFVTLLNILYCVKITNFQHSVFLLLKRNISPKIPRLLLACVLISAFTTCLYITLSQASPFPELVTTRNNTSFNISEGILSLVVSLVLSSSLQFIINVTSASLLIHSLRRHIQKMQKNATGFWNPQTEAHVGAMKLMVYFLILYIPYSVATLVQYLPFYAGMDMGTKSICLIFATLYSPGHSVLIIITHPKLKTTAKKILCFKK [TAS2R4] |  | plasma membrane surface immunostaining intensity (GPCR class: Taste): 139 ± 19
6 | MQRANHSTVTQFILVGFSVFPHLQLMLFLLFLLMYLFTLLGNLLIMATVWSERSLHTPMYLFLCALSVSEILYTVAIIPRMLADLLSTQRSIAFLACASQMFFSFSFGFTHSFLLTVMGYDRYVAICHPLRYNVLMSPRGCACLVGCSWAGGLVMGMVVTSAIFHLAFCGHKEIHHFACHVPPLLKLACGDDVLVVAKGVGLVCITALLGCFLLILLSYAFIVAAILKIPSAEGRNKAFSTCASHLTVVVVHYGFASVIYLKPKSPQSLEGDTLMGITYTVLTPFLSPIIFSLRNKELKVAMKKTFFSKLYPEKNVMM [OR10H1] | 121 ± 17 | 
7 | MAVAPLRGALLLWQLLAAGGAALEIGRFDPERGRGAAPCQAVEIPMCRGIGYNLTRMPNLLGHTSQGEAAAELAEFAPLVQYGCHSHLRFFLCSLYAPMCTDQVSTPIPACRPMCEQARLRCAPIMEQFNFGWPDSLDCARLPTRNDPHALCMEAPENATAGPAEPHKGLGMLPVAPRPARPPGDLGPGAGGSGTCENPEKFQYVEKSRSCAPRCGPGVEVFWSRRDKDFALVWMAVWSALCFFSTAFTVLTFLLEPHRFQYPERPIIFLSMCYNVYSLAFLIRAVAGAQSVACDQEAGALYVIQEGLENTGCTLVFLLLYYFGMASSLWWVVLTLTWFLAAGKKWGHEAIEAHGSYFHMAAWGLPALKTIVILTLRKVAGDELTGLCYVASTDAAALTGFVLVPLSGYLVLGSSFLLTGFVALFHIRKIMKTGGTNTEKLEKLMVKIGVFSILYTVPATCVIVCYVYERLNMDFWRLRATEQPCAAAAGPGGRRDCSLPGGSVPTVAVFMLKIFMSLVVGITSGVWVWSSKTFQTWQSLCYRKIAAGRARAKACRAPGSYGRGTHCHYKAPTVVLHMTKTDPSLENPTHL [FZD9] |  | plasma membrane surface immunostaining intensity (GPCR class: F): 1560 ± 410
8 | MEEAILLNQTSLVTYFRLRGLSVNHKARIAMFSMFLIFYVLTLIGNVLIVITIIYDHRLHTPMYFFLSNLSFIDVCHSTVTVPKMLRDVWSEEKLISFDACVTQMFFLHLFACTEIFLLTVMAYDRYVAICKPLQYMIVMNWKVCVLLAVALWTGGTIHSIALTSLTIKLPYCGPDEIDNFFCDVPQVIKLACIDTHVIEILIVSNSGLISVVCFVVLVVSYAVILVSLRQQISKGKRKALSTCAAHLTVVTLFLGHCIFIYSRPSTSLPEDKVVSVFFTAVTPLLNPIIYTLRNEEMKSALNKLVGRKERKEEK [OR4E1] | 264 ± 95 | 
9 | MEGALAANWSAEAANASAAPPGAEGNRTAGPPRRNEALARVEVAVLCLILLLALSGNACVLLALRTTRQKHSRLFFFMKHLSIADLVVAVFQVLPQLLWDITFRFYGPDLLCRLVKYLQVVGMFASTYLLLLMSLDRCLAICQPLRSLRRRTDRLAVLATWLGCLVASAPQVHIFSLREVADGVFDCWAVFIQPWGPKAYITWITLAVYIVPVIVLAACYGLISFKIWQNLRLKTAAAAAAEAPEGAAAGDGGRVALARVSSVKLISKAKIRTVKMTFIIVLAFIVCWTPFFFVQMWSVWDANAPKEASAFIIVMLLASLNSCCNPWIYMLFTGHLFHELVQRFLCCSASYLKGRRLGETSASKKSNSSSFVLSHRSSSQRSCSQPSTA [OXTR] |  | plasma membrane surface immunostaining intensity (GPCR class: A): 5390 ± 230
10 | MVNQSSTPGFLLLGFSEHPGLERTLFVVVLTSYLLTLVGNTLIILLSALDPKLHSPMYFFLSNLSFLDLCFTTSCVPQMLVNLWGPKKTISFLDCSVQIFIFLSLGTTECILLTVMAFDRYVAVCQPLHYATIIHPRLCWQLASVAWVIGLVESVVQTPSTLHLPFCPDRQVDDFVCEVPALIRLSCEDTSYNEIQVAVASVFILVVPLSLILVSYGAITWAVLRINSAKGRRKAFGTCSSHLTVVTLFYSSVIAVYLQPKNPYAQERGKFFGLFYAVGTPSLNPLIYTLRNKEVTRAFRRLLGKEMGLTQS [OR2H2] | 145 ± 10 | 
11 | MVGDTLKLLSPLMTRYFFLLFYSTDSSDLNENQHPLDFDEMAFGKVKSGISFLIQTGVGILGNSFLLCFYNLILFTGHKLRPTDLILSQLALANSMVLFFKGIPQTMAAFGLKYLLNDTGCKFVFYYHRVGTRVSLSTICLLNGFQAIKLNPSICRWMEIKIRSPRFIDFCCLLCWAPHVLMNASVLLLVNGPLNSKNSSAKNNYGYCSYKASKRFSSLHAVLYFSPDFMSLGFMVWASGSMVFFLYRHKQQVQHNHSNRLSCRPSQEARATHTIMVLVSSFFVFYSVHSFLTIWTTVVANPGQWIVTNSVLVASCFPARSPFVLIMSDTHISQFCFACRTRKTLFPNLVVMP [VN1R1] |  | plasma membrane surface immunostaining intensity (GPCR class: Vomeronasal): 140 ± 8.3
12 | MKANYSAEERFLLLGFSDWPSLQPVLFALVLLCYLLTLTGNSALVLLAVRDPRLHTPMYYFLCHLALVDAGFTTSVVPPLLANLRGPALWLPRSHCTAQLCASLALGSAECVLLAVMALDRAAAVCRPLRYAGLVSPRLCRTLASASWLSGLTNSVAQTALLAERPLCAPRLLDHFICELPALLKLACGGDGDTTENQMFAARVVILLLPFAVILASYGAVARAVCCMRFSGGRRRAVGTCGSHLTAVCLFYGSAIYTYLQPAQRYNQARGKFVSLFYTVVTPALNPLIYTLRNKKVKGAARRLLRSLGRGQAGQ [OR2I1P] | 132 ± 5.4 | 
13 | MTSNFSQPVVQLCYEDVNGSCIETPYSPGSRVILYTAFSFGSLLAVFGNLLVMTSVLHFKQLHSPTNFLIASLACADFLVGVTVMLFSMVRTVESCWYFGAKFCTLHSCCDVAFCYSSVLHLCFICIDRYIVVTDPLVYATKFTVSVSGICISVSWILPLTYSGAVFYTGVNDDGLEELVSALNCVGGCQIIVSQGWVLIDFLLFFIPTLVMIILYSKIFLIAKQQAIKIETTSSKVESSSESYKIRVAKRERKAAKTLGVTVLAFVISWLPYTVDILIDAFMGFLTPAYIYEICCWSAYYNSAMNPLIYALFYPWFRKAIKLILSGDVLKASSSTISLFLE [TAAR8] |  | plasma membrane surface immunostaining intensity (GPCR class: A): 352 ± 170
